We go through two molecules from article doi:10.1101/2025.07.16.665076, “GPLD1 is as a scavenger carrier mediating lysosomal degradation of extracellular aberrant proteins” (bioRxiv, 2025).

This experiment concerns the target T1, GPLD1-mCherry-sfGFP-His (GPLD1-RG) (human, UniProt P80108 24-840).
T1 construct: signal peptide in the construct; glycosylphosphatidylinositol-specific phospholipase D1 (GPLD1), human, full length, amplified from HepG2 cDNA; The fusion is said to be 160 kDa; also called GPLD1-RFP-GFP; GPLD1-RG-His; not shown: mCherry, C-terminal, kept; sfGFP, C-terminal, kept; His, C-terminal, kept
T1 sequence (looked up): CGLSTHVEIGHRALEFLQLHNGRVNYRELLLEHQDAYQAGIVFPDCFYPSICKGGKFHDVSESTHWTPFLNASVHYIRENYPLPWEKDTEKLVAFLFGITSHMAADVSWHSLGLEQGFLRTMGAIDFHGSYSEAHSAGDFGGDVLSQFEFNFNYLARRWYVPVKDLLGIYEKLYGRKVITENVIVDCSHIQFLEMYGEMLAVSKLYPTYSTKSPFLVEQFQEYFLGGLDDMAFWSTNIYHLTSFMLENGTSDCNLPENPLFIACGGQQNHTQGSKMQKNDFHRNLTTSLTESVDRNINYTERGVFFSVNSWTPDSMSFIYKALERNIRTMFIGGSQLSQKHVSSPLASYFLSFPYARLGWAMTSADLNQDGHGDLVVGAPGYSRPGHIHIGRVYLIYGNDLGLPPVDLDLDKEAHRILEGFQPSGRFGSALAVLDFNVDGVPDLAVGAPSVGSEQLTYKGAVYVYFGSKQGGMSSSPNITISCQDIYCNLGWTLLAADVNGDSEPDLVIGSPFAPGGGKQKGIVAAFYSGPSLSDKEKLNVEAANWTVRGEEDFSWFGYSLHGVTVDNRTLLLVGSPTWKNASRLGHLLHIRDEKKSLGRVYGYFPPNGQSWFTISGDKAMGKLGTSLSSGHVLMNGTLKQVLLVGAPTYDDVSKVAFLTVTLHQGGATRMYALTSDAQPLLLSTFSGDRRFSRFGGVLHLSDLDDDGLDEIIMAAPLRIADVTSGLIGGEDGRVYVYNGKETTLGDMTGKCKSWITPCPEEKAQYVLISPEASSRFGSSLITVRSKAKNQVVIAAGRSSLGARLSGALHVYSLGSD
Kind of experiment: co-IP; purified RG-tagged protein (GPLD1-RG 40 nM) and ALFA-tagged substrate (His-ALFA-SAA1 500 nM) in PBS, 37°C with shaking for 2 h, aggregates spun out; ALFA nanobody beads at 4°C for 2 h, four washes with PBS; immunoblot. To be noted: both partners purified.

B1: His-ALFA-SAA1-N terminus (SAA1-N) (domain or fragment, human, UniProt P0DJI8 19-94, looked up)
chain: RSFFSFLGEAFDGARDMWRAYSDMREANYIGSDKYFHARGNYDAAKRGPGGAWAAEVITDARENIQRFFGHGAEDS
notes: serum amyloid A1 (SAA1), human, amino acids 19-94: the N-terminal 76 residues, core amyloidogenic fragment; Prepared in 8 M urea-denatured form for all experiments; it aggregates on incubation in PBS; also called His-ALFA-tagged SAA1-N; source: E. coli BL21(DE3) pLysS, purified from inclusion bodies (Co-NTA, 8 M urea), stored in urea; not shown: His, N-terminal, kept; ALFA, N-terminal, kept
As to B1, the binding result is given as “binds”.

B2: His-ALFA-SAA1-Full length (SAA1-F) (natural protein, human, UniProt P0DJI8 19-122, looked up)
chain: RSFFSFLGEAFDGARDMWRAYSDMREANYIGSDKYFHARGNYDAAKRGPGGAWAAEVITDARENIQRFFGHGAEDSLADQAANEWGRSGKDPNHFRPAGLPEKY
notes: serum amyloid A1 (SAA1), human, amino acids 19-122; Used in native form in the immunoprecipitation; the purification of the native form is not described; also called native ALFA-SAA1-F (full-length); source: E. coli BL21(DE3) pLysS, recombinant; not shown: His, N-terminal, kept; ALFA, N-terminal, kept
In the case of B2, the binding result is reported as “binds”.
